Laboratory results: US20140242080A1 (Hoffmann-La Roche, published 2014)

B1: MCSP TCB (2+1 Crossfab-IgG P329G LALA inverted) (bispecific antibody)
light 1: not shown
light 2: QAVVTQEPSLTVSPGGTVTLTCGSSTGAVTTSNYANWVQEKPGQAFRGLIGGTNKRAPGTPARFSGSLLGGKAALTLSGAQPEDEAEYYCALWYSNLWVFGGGTKLTVLSSASTKGPSVFPLAPSSKSTSGGTAALGCLVKDYFPEPVTVSWNSGALTSGVHTFPAVLQSSGLYSLSSVVTVPSSSLGTQTYICNVNHKPSNTKVDKKVEPKSC
heavy 1: not shown
heavy 2: QVQLQESGPGLVKPSQTLSLTCTVSGGSITSGYYWNWIRQHPGKGLEWIGYITFDGSNNYNPSLKSRVTISRDTSKNQFSLKLSSVTAADTAVYYCADFDYWGQGTLVTVSSASTKGPSVFPLAPSSKSTSGGTAALGCLVKDYFPEPVTVSWNSGALTSGVHTFPAVLQSSGLYSLSSVVTVPSSSLGTQTYICNVNHKPSNTKVDKKVEPKSCDKTHTCPPCPAPEAAGGPSVFLFPPKPKDTLMISRTPEVTCVVVDVSHEDPEVKFNWYVDGVEVHNAKTKPREEQYNSTYRVVSVLTVLHQDWLNGKEYKCKVSNKALGAPIEKTISKAKGQPREPQVCTLPPSRDELTKNQVSLSCAVKGFYPSDIAVEWESNGQPENNYKTTPPVLDSDGSFFLVSKLTVDKSRWQQGNVFSCSVMHEALHNHYTQKSLSLSPGK
notes: also called MCSP TCB antibody; MCSP CD3 bispecific antibody
B2: “2+1 IgG scFab, wt” (anti-MCSP/anti-huCD3) (bispecific antibody)
chain 1: DIVLTQSPSSLSASLGDRVTISCSASQGIRNYLNWYQQRPDGTVKLLIYYTSSLHSGVPSRFSGSGSGTDYSLTISNLEPEDIATYYCQQYSKLPWTFGGGTKLEIKRTVAAPSVFIFPPSDEQLKSGTASVVCLLNNFYPREAKVQWKVDNALQSGNSQESVTEQDSKDSTYSLSSTLTLSKADYEKHKVYACEVTHQGLSSPVTKSFNRGEC
chain 2: not shown
chain 3: not shown
notes: Wild-type Fc domain; also called Fc-wt; copies: 2 + 1 + 1

Columns and labels:
murine MCSP D3 = biological target: T1, murine MCSP D3 (murine, UniProt Q8VHY0 1587-2218, limits assumed); experiment: SPR Biacore T100, 25 C; TCB captured via anti-human Fab, antigen as analyte; steady state
T1 construct: also called recombinant murine MCSP D3
T1 sequence: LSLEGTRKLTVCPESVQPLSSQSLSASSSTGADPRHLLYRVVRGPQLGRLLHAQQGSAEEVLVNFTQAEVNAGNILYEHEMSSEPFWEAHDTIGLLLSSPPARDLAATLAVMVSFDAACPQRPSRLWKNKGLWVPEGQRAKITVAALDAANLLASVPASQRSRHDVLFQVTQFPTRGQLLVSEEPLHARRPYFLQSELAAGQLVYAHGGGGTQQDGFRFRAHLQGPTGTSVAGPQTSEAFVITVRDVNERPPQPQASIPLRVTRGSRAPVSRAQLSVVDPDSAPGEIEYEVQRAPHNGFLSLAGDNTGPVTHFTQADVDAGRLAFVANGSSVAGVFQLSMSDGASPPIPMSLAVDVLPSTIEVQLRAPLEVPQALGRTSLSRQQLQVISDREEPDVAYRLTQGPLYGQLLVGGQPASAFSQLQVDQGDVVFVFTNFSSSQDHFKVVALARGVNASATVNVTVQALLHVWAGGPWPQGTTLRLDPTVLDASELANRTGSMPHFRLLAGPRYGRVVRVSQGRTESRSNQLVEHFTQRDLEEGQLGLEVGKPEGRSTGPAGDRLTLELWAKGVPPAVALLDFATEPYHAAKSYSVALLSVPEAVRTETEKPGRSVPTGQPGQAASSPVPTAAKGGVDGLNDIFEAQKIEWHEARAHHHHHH
Method: (§1) Capture IgG was coupled to the sensorchip surface by direct immobilization of around 7,500 resonance units (RU) at pH 5.0 using the standard amine coupling kit (Biacore, Freiburg/Germany). […] Since the interaction with murine MCSP (SEQ ID NO: 380) was expected to be weak the concentration range for this antigen was chosen between 3.9 and 500 nM. The dissociation for all interactions was monitored for 120 s. Bulk refractive index differences were corrected for by subtracting the response obtained on a reference flow cell.
(§2) Kinetic constants were derived using the Biacore T200 Evaluation Software (vAA, Biacore AB, Uppsala/Sweden), to fit rate equations for 1:1 Langmuir binding by numerical integration. […] The half-life (t_{1/2}) of the interaction was calculated using following formula: t_{1/2}=ln 2/koff.

cynomolgus MCSP D3 [1] = biological target: T2, cynomolgus MCSP D3 (cynomolgus, UniProt Q6UVK1 1582-2224 (human entry), limits assumed); experiment: SPR Biacore T100, 25 C; TCB captured via anti-human Fab, antigen as analyte
T2 construct: also called Cyno MCSP; cynomolgus homologue
T2 chain: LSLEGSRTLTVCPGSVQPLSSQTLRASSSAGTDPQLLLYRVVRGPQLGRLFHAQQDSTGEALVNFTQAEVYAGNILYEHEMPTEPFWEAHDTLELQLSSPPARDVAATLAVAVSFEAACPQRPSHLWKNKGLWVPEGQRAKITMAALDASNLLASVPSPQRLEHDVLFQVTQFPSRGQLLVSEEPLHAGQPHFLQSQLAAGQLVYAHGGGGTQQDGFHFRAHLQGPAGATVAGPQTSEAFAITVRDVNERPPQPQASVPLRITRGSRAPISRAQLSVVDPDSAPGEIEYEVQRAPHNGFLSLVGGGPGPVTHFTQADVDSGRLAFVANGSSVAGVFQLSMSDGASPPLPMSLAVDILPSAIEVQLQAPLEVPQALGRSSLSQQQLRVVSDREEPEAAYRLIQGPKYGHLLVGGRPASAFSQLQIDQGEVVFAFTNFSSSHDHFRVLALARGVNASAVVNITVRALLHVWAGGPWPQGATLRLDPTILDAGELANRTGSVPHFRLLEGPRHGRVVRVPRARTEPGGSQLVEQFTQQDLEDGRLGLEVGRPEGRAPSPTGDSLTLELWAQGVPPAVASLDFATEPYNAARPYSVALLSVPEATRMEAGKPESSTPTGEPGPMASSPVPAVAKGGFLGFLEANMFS
Method: (§3) Surface plasmon resonance (SPR) experiments were performed on a Biacore T100 at 25° C. with HBS-EP as running buffer (0.01 M HEPES pH 7.4, 0.15 M NaCl, 3 mM EDTA, 0.005% Surfactant P20, Biacore, Freiburg/Germany).
as §1, §2

[2] = biological target: T3, hu-MCSP(D3 domain)-avi-his (human, UniProt Q6UVK1 1582-2224); experiment: as above
T3 construct: Recombinant D3 domain with avi and his tags; also called human MCSP(D3 domain)-avi-his; Human MCSP D3
T3 sequence: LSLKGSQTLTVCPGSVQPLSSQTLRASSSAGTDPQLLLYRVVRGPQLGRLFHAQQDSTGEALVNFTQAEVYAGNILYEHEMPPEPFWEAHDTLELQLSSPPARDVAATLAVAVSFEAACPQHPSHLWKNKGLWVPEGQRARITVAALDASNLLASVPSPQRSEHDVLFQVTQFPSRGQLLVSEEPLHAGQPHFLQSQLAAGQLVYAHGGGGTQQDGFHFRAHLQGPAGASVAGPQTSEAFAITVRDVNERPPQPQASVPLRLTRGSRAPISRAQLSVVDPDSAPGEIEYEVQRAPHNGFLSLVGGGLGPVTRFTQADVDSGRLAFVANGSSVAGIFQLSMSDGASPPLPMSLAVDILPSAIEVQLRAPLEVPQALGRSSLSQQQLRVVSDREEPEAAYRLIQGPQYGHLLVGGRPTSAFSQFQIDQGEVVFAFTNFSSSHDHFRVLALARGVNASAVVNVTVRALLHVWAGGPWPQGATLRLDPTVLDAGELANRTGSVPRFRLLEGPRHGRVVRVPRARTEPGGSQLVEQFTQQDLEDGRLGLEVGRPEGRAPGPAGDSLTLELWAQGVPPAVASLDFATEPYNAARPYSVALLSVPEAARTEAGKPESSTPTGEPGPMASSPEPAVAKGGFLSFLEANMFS
Method: as §3, §1, §2

[3] = biological target: T4, human CD3ε stalk-Fc (knob)-Avi/CD3δ-stalk-Fc(hole) (human); experiment: as above
T4 construct: also called Human CD3ε/CD3δ; recombinant CD3ε/CD3δ
Method: as §3, §1, §2

cynomolgus MCSP D3 [4] = biological target: T2, cynomolgus MCSP D3; experiment: SPR Biacore T100, 25 C; t1/2 = ln 2/koff
Method: as §1, §2

[5] = biological target: T3, hu-MCSP(D3 domain)-avi-his; experiment: SPR Biacore T100, 25 C; t1/2 = ln 2/koff
Method: as §1, §2

[6] = biological target: T4, human CD3ε stalk-Fc …; experiment: SPR Biacore T100, 25 C; t1/2 = ln 2/koff
Method: as §1, §2

HuFcγRIIIa-V158-K6H6 [7] = biological target: T5, HuFcγRIIIa-V158-K6H6 (human, UniProt P08637 17-208, limits assumed); experiment: SPR Biacore T100, 25 C; receptor captured via anti-Penta His, construct as analyte; kinetic, value in brackets not explained
T5 construct: His-tagged recombinant receptor captured by anti-Penta His antibody; also called human FcγRIIIa-V158; human FcγRIIIa
Method: (§4) For analyzing interaction of different Fc-variants with human FcγRIIIa-V158 and murine FcγRIV direct coupling of around 6,500 resonance units (RU) of the anti-Penta His antibody (Qiagen) is performed on a CM5 chip at pH 5.0 using the standard amine coupling kit (Biacore, Freiburg/Germany). HuFcγRIIIa-V158-K6H6 and muFcγRIV-aviHis-biotin are captured for 60 s at 4 and 10 nM respectively.
(§5) Constructs with different Fc-mutations are passed through the flow cells for 120 s at a concentration of 1000 nM with a flow rate of 30 μl/min. The dissociation is monitored for 220 s. Bulk refractive index differences are corrected for by subtracting the response obtained in a reference flow cell. […] Affinity for human FcγRIIIa-V158 and murine FcγRIV was determined for wild-type Fc using a concentration range from 500-4000 nM.
(§6) The steady state response was used to derive the dissociation constant KD by non-linear curve fitting of the Langmuir binding isotherm. Kinetic constants were derived using the Biacore T100 Evaluation Software (vAA, Biacore AB, Uppsala/Sweden), to fit rate equations for 1:1 Langmuir binding by numerical integration.

HuFcγRIIIa-V158-K6H6 [8] = biological target: T5, HuFcγRIIIa-V158-K6H6; experiment: SPR Biacore T100, 25 C; receptor captured via anti-Penta His, construct as analyte; kinetic, one concentration (1000 nM)
Method: as §4, §5

muFcγRIV-aviHis-biotin [9] = biological target: T6, muFcγRIV-aviHis-biotin (murine, UniProt A0A0B4J1G0 21-203, Biotinylated at the avi tag (tag not included in the letters)); experiment: SPR Biacore T100, 25 C; receptor captured via anti-Penta His, construct as analyte; kinetic
T6 construct: Captured by anti-Penta His antibody; also called murine FcγRIV; not shown: exact C-terminal limit of the soluble construct
T6 sequence: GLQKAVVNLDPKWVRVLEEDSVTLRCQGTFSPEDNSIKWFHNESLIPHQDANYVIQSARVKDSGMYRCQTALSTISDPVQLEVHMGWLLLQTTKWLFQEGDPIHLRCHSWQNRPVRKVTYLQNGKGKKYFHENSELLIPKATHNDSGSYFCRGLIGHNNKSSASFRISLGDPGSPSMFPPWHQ
Method: as §4, §5, §6

muFcγRIV-aviHis-biotin [10] = biological target: T6, muFcγRIV-aviHis-biotin; experiment: SPR Biacore T100, 25 C; receptor captured via anti-Penta His, construct as analyte; steady state
Method: as §4, §5, §6

HuFcγRIIIa-V158-K6H6 [11] = biological target: T5, HuFcγRIIIa-V158-K6H6; experiment: as above
Method: as §4, §5, §6

T5 sequence (P08637 17-208 F176V limits assumed): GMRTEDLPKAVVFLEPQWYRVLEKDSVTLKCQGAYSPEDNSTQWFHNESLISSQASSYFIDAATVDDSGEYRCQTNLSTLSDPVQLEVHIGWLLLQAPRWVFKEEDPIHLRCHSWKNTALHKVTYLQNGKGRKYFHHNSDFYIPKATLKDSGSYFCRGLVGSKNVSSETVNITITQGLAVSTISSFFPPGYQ
T4 sequence (chain, as listed by the source mutant limits assumed, chain 1 of 2): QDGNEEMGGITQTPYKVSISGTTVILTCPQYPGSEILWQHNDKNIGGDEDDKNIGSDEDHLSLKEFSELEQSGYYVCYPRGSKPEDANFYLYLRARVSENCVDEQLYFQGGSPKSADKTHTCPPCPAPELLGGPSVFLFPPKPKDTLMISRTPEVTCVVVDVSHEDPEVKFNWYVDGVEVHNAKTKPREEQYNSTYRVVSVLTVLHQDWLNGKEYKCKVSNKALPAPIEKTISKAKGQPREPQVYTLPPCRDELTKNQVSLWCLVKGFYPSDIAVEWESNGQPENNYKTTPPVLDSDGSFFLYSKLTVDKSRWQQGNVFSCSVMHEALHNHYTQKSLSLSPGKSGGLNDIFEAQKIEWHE
T4 sequence (chain, as listed by the source mutant limits assumed, chain 2 of 2): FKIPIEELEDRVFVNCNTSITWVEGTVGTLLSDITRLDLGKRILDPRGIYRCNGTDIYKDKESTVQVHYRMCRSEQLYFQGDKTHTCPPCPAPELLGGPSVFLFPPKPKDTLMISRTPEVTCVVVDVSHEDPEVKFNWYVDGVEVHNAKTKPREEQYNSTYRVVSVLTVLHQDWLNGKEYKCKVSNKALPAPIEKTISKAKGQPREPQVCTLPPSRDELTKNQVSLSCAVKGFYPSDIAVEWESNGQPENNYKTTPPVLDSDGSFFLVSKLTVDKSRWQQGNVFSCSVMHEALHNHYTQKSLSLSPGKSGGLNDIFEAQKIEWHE

Row | Binder | Kd (murine MCSP D3) | Kd (cynomolgus MCSP D3 [1]) | Kd [2] | Kd [3] | t1/2 (cynomolgus MCSP D3 [4]) | t1/2 [5] | t1/2 [6] | Kd (HuFcγRIIIa-V158-K6H6 [7]) | Kd (HuFcγRIIIa-V158-K6H6 [8]) | Kd (muFcγRIV-aviHis-biotin [9]) | Kd (muFcγRIV-aviHis-biotin [10]) | Kd (HuFcγRIIIa-V158-K6H6 [11])
1 | B1 | 1570 nM | 0.12 nM | 0.15 nM | 78.7 nM | 4.38 h | 3.42 h | 2.9 min |  |  |  |  | 
2 | B2 |  |  |  |  |  |  |  | 1200 nM | 600 nM | 576 nM | 1500 nM | 3470 nM
